This note sets out measurements from patent publication US20190137523A1 (Hoffmann-La Roche, published 2019).

This assay has as its target T1, VEGF-A 121 (Peprotech), dimeric (human, UniProt P15692-9 27-147).
T1 construct: also called VEGF121
T1 sequence (looked up): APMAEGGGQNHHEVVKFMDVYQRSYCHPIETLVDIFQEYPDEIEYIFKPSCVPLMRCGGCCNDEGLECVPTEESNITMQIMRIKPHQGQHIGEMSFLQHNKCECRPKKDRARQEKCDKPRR
Kind of assay: SPR (Biacore T200), consecutive injections. VEGF-A 121 is displayed by captured rH-4.6.1-IgG (Avastin) and saturated again with rH-4.6.1-IgG. Setup as printed: rH-4.6.1-IgG*VEGF-A*rH4.6.1*Ab1*Ab2. The procedure:
The sample buffer was the system buffer supplemented with 1 mg/ml CMD (Carboxymethyldextran, Sigma #86524). The system operated at 25° C.
(Surface plasmon resonance follows binding to a sensor surface in real time, without labels.)

B1: 13.7.40-Ru (antibody, V domains shown)
VH: QAQLQQPGAELVKPGASVNLSCKASGYTFTNYWIHWVSQRPGQGLEWIGEINPSDGRTYYNEKFKNKVILTVDEASTTAYLQLSSLTSEDSAVYYCTSRYYIYGVDYWGQGTTLTVSS
VL: SIVMTQTPKFLLVSPGDRVTITCKASQSVGHDVSWYRQKPGQSPKVLIYYASNRYTGVPDRFTGSGYGTDFTFTVRSVRTEDLAVYFCQQDYTSPLTFGTGTKLELKR
notes: Tested as a ruthenylated conjugate
In the case of B1, the binding result was “binds”.
